Consider 16 sequences from a protein production outcome set (Wang et al. 2014).

The series in a line: label from the status in PepcDB records.
For the sequence “MTTVIVANDLVGFGKVALTSSLLPIMSACQTEVLPLPTVLLSSHTGEFDNIYVRYLTVDMQGFCGQWKRLDFRVDGLVGGYFKSEEELGLVSQCLTKKRFLFLLDPIMGDNGRLYQGFDRDYVEAMKDFCQQADVIIPNLTEAALLTGSPYLEEGSYDMTTIENLLRNLSRLGPRKVILTGISFETEKIGLAYFDKETNQVIYRMRKRYQSHFYGSGDLLTAILSAGYFHNLDFLKVCDLALDFLNKVLLFTLSSGRPLKYGLCYEPLYRLFILEHHHHHH”, the protein production result is on record as “not failed”. With “MTVDAATSAEVSQRVLAYLVEQLGVDVSFLRHNDRDRRATRLVAEWPPRLNIPDPDPLRLIYFADADPVFALCEHAKEPLVFRPEPATEDYQRLIEEARGVPVTSAAAVPLVSGEITTGLLGFIKFGDRKWHEAELNALMTIATLFAQVQARVAAEARLRYLADHDDLEHHHHHH” the entry was “not failed”; with “MTVDSNTSSGRGNDPEQIDLIELLLQLWRGKMTIIVAVIIAILLAVGYLMIAKEKWTSTAIITQPDAAQVATYTNALNVLYGGNAPKISEVQANFISRFSSAFSALSEVLDNQKEREKLTIEQSVKGQALPLSVSYVSTTAEGAQRRLAEYIQQVDEEVAKELEVDLKDNITLQTKTLQESLETQEVVAQEQKDLRIKQIEEALRYADEAKITQPQIQQTQDVTQDTMFLLGSDALKSMIQNEATRPLVFSPAYYQTKQTLLDIKNLKVTADTVHVYRYVMKPTLPVRRDSPKTAITLVLAVLLGGMIGAGIVLGRNALRSYKPKAL”, “not failed”; with “MTVGASQQTSTIALHNDTGMLMSNLNIFKQPNAFYLIFSIEFWERFGFYGMQAILTVYMVKIMGMDESASFVLFGAFSALVYGFVAIGGWIGDKVIGTKRAITLGAIVMMVGYVLLGLSTADHPLVGPTLIYIAMGFITVGNGLFKANPSSLLAKIYPENDPRLDGAFTMYYMAINLGSFFSMIITPLVAIKMGYGMAFGVSAVGLAITVVNFLFCLRMLKGTGSPADLMPVNKMYLVLVAVGSIIASLVCSYLLQNLTLAHGILVVAGLFILGCYFKEAFSMSGIERAKMLVAFILMLQGVVFFVLYFQMPTSLNFFAINNVEHHIFGFDVAPEQFQALNPFWIMIASPILAATYGKLGDKLAMPFKFAFGMALCALSFLVLSWGTLFANEQGIISSNWLIASYAFQSIGELLVSGLGLAMVAQLVPQRMMGFAMGMWFLTSASAAVIAGWVASLTSTPANVSGATESLHIYGEVFAQIGYVTAGIAIVTFMIAPKLTRICRGESEPLELVTQ”, “failed”. With “MTVIERFKSNLKGKQNLINFGFILIGLFGCYLLIAWASYSPLDNAWSTASSVTHDTVLNKTGKLGAWLIDLLYAFLGNVAFVVPFVLFSFAIYALIFRIAEQWKWRNLLLQIGSFILLLIGLSGIASVLLPNSAYYLAGGFVGGMLQSLLNGIIGQVGLLLLSTVLMSIGFYFCSGQLLFSLGIQFYQWLFIKKPQSNTILEAANPHLNAQNNETTKSIVANPSENAHVDQLVTHENATEQLTDVSAFTRPTIHGLKSSSTLNTDKTKYNQVNAQPLTDPMMFKIEKKVILPKINMQHPENELTNLSMEQTNSIDNLEIRLPKVHLNTAVTNPEIKTVEHHAQNRPLEMPTQIQPVFDQPITPTISLNVEDQPLDIESNEAQLAEEFAAAEQMRLANMEQRAKAEGLEETFNQIITSPTLTVSINESSEQPTEKDLNPTHHDNGANYPKGYGKTLLHPLLQRNNVVEKPTTPLPTLELLAKNPVQTQQITEQEIFDTSHRLENALANYNVKATVEDVLVGPVVTRYEIKPAAGIKANKVTALANDLARELMFKAIRITEVVPGKPYMGIETPNTHRQTVWLRDVLDSEAFRHTQATLPMALGKDISGQPIVVDMAKMPHLLVAGQTGGGKSVGINTMILSLLFKLTPEQVRFIMIDPKVVELSVYNDIPHLLTPVVTDMKKAANALRWAVGEMERRYLLISHLQVRNIEGYNDKIDQASAMNFPIPDPTWRPADSIGQLPPPLTKLSYIVLIVDEFADLIMSAGKEVEEYIMRIAQKARAVGIHLILATQRPSTDVITGVIKANIPSRIAFTVASQIDSRTILDAGGAEALLGRGDMLYSASGSPEIMRIHGAFMSDEEVQRIADNWRARGKPQYLDSVVASHEDENDSRTNTITELDPLFDEIVAYVIESGVTSISGIQRRFSLGFNRAGRIIDQMEAQAIISEPGKGGKREVLAR” the entry was “failed”; with “MTVITLMLVLFEVVFSVSIYRYYYNGIVQYIESHAKTSTRFFSEYNSLYFIRLQEYSGDIISSFQLEGTELQLIDRHGSVIQSSSGEKVEGKVNIPQSLLEGEMYNQVTTKGNKKQLEVLSPLIHQGQTIGVLKYTTVLTNVNKKIIEIITFTISVGIVISGVVFLISRRLANSFVEPIESIIQASSQIAEGTLKQKIKEDYPGELGDLAHSLNYMAYKIDKAEQMKNEFIASISHEIRTPLTGIKGWSETLKTVDHLTEEEIKQGMGIISGETDRLIHLVEELLDFSRLQSNHFNLYKQKVQLYDILEETIWQLTPKSEEKEIQFITTIDRMELMGDRNRLKQVFLNIVQNAIKYSHKKSTIHIEATKIEGQAVIKVRDEGIGIAKEHLPYIEQSFYQINNHAAGAGIGLAIVKKMVELHSGVLSVTSKEGIGTTILIKLPL”, “failed”; with “MTVLKGDNLEILKTIESSSIDLIYMDPPFFTQKTQKLSNNKNIMYSFEDTWTSIEDYKEFLSVRLEECKRVLKNSGSIFVHCDKIANHHIRLILDNIFGVDMFQSEIIWNYKRWSNSKKGLLNNHQNIYFYSKSKDFKFNTIFTEYSSTTNIDQILVERKRDGNSKTIYKVDNNGNYILAKEKNGVPLSDVWNIPFLNPKAKERVGYPTQKPILLLEQIIKIATDKNDIVLDPFCGSGTTLVASKILNRNYMGIDLSEEAINITQQRLENVIKTSSNLLNKGIE”, “failed”.

Take “MTVLSPSLPHAAGIDAALVENPWLGLRRSGRYFQNAETEALFARALGYARAGVCVHLAGPAGLGKTTLALRIAQALGRPVAFMTGNEWLGSRDFIGGEIGQTVTSVVDRYIQSVRRTEQSARIDWKESILGQAMRCGQTFIYDEFTRASPEANAALLSVLEEGVLVSTDGASRHQYIEAHPDFRVLLTSNPHEYQGVKAAPDALIDRMVTLRLEEPSAPTLAGIVALRSGLDPATARRIVDLILSVQRSGEMQAPPSMRTAILVARLAAPLRLAGRLSDAALAEIAADVLRGRGLEADAAAFEAKLAAPTPGETARLEHHHHHH”: the protein production result was “failed”. With “MTVNVYDLANELERGIRALPEYQALVQAKAKIDEDEEAKKLWTEFTEFQMKIQGLIQTGQAPTPEVQTEMQSFNQKIEANPLLKEYATAQQALGVYVNDIERIIFSPLQDIAK” the entry was “not failed”; with “MTVPEEAQTLIGKHYRAPDHFLVGREKIREFAVAVKDDHPTHYSEPDAAAAGYPALVAPLTFLAIAGRRVQLEIFTKFNIPINIARVFHRDQKFRFHRPILANDKLYFDTYLDSVIESHGTVLAEIRSEVTDAEGKPVVTSVVTMLGLEHHHHHH”, “failed”. With “MTVQRREKGSSITRVLEIIEAISRAERPMSPAELAFLLDIPKPSIHRLLQQLEADNYVQINMRGLLVPGDRMHSIALGVLHSSRFKALRQAILKKLAETIGETCGIAIPDGIEMIYYDRVQTNWPLRVNLPVGSHTPVACTASGKLYLSSLPKERRHRIIGKLSLEKLARNTLIESESLEKELINIQANELGTDNEEFIDGMVACSVPIKDQDGKLFACLFTHAPVIRKSLDELLAFEPALRHAAIELGDLLKEQ” the entry was “failed”. As to “MTVSGPGTPEPRPATPGASSVEQLRKEGNELFKCGDYGGALAAYTQALGLDATPQDQAVLHRNRAACHLKLEDYDKAETEASKAIEKDGGDVKALYRRSQALEKLGRLDQAVLDLQRCVSLEPKNKVFQEALRNIGGQIQEKVRYMSSTDAKVEQMFQILLDPEEKGTEKKQKASQNLVVLAREDAGAEKIFRSNGVQLLQRLLDMGETDLMLAALRTLVGICSEHQSRTVATLSILGTRRVVSILGVESQAVSLAACHLLQVMFDALKEGVKKGFRGKEGAIIVDPARELKVLISNLLDLLTEVGVSGQGRDNALTLLIKAVPRKSLKDPNNSLTLWVIDQGLKKILEVGGSLQDPPGELAVTANSRMSASILLSKLFDDLKCDAERENFHRLCENYIKSWFEGQGLAGKLRAIQTVSCLLQGPCDAGNRALELSGVMESVIALCASEQEEEQLVAVEALIHAAGKAKRASFITANGVSLLKDLYKCSEKDSIRIRALVGLCKLGSAGGTDFSMKQFAEGSTLKLAKQCRKWLCNDQIDAGTRRWAVEGLAYLTFDADVKEEFVEDAAALKALFQLSRLEERSVLFAVASALVNCTNSYDYEEPDPKMVELAKYAKQHVPEQHPKDKPSFVRARVKKLLAAGVVSAMVCMVKTESPVLTSSCRELLSRVFLALVEEVEDRGTVVAQGGGRALIPLALEGTDVGQTKAAQALAKLTITSNPEMTFPGERIYEVVRPLVSLLHLNCSGLQNFEALMALTNLAGISERLRQKILKEKAVPMIEGYMFEEHEMIRRAATECMCNLAMSKEVQDLFEAQGNDRLKLLVLYSGEDDELLQRAAAGGLAMLTSMRPTLCSRIPQVTTHWLEILQALLLSSNQELQHRGAVVVLNMVEASREIASTLMESEMMEILSVLAKGDHSPVTRAAAACLDKAVEYGLIQPNQDGE”, the protein production result is on record as “failed”. Consider “MTYFFETYGCQMNQAESSSMEQILLEKGWTNSSDAEHCDLLIINTCSVRITAENRVLGRLGHFSGLKKKRKFFVLLIGCMAERLYTEIQKEFPLIDYVVGMFERNLLPQIFDEIKARLKNDNYMAEFTHDNIEEKPVSGYYFAPLSHSPKSFQSYVPIMNGCNNFCTYCIVPYVRGREVSRPVNEILQEITELSSRGVREITLLGQNVNSYKGEDGEGRLIDFPKLLTLIAREADKTDMIRWIRFMSSHPKDMSDALIDTIAAEKRLCKLVHLPVQHGSDTILKRMNRVYTIEHYKNRIKRLKETIPDIALSTDILMGFPGETEDDVKATLDLMQEIEFDSAFMYHYNPREGTKAFNYPDRIPEEVKIERLGRVIDLQLKITAKKMKAKLGKKVDILVESHSRNERSELFGHTEQGEMTVIQGNPPESLIGNFAHAELKELKGKTFRANLN”, for which the protein production entry is “failed”. With “MTYFLYGNNFSSSILDTISYIIDWIIINMEPITLTLCLLVFAIVMFVWEKVPLAVTSMIVCVALVITGVLNIKQAFAGFIDTNVILFVAMFIVGGALFETGMANKVGGVITRFAKTEKQLIFTIMVVVGLMSGVLSNTGTAAVLIPVVIGVAAKSGFSRSRLLMPLVFAAALGGNLSLIGAPGNLIAQSALQNIGGGFGFFEYAKIGLPMLICGILYFLTIGYRFLPNNATGGEVGSVGEQRDYSHVPQWKQRLSLVVLIATILGMIFEKKIGVSLAVTGCIGALVLVVSGVLTEKQAYKAIDSQTIFIFGGTLALAKALEMTGAGKLVADYVIGMLGQNSSPFMLLIAVFALSVVMTNFMSNTATTALLVPVSLSIAAGMGADPRAVLMATVIGGSCAYATPIGMPANMMVLSAGGYKFVDYAKAGIPLIIVSTIVSLILLPILFPFHP” the entry was “failed”; with “MTYVLYGIKACDTMKKARTWLDEHKVAYDFHDYKAVGIDREHLRRWCAEHGWQTVLNRAGTTFRKLDEAQKADLDEAKAIELMLAQPSMIKRPVLELGGRTLVGFKPDAYAAALA”, “not failed”. For the sequence “MVAEITAPKSMGKVLGYNFSKVTAGNASVILTSSMSVDANGETNFERALTDMDMRIPSGIRTKKTVFHCSLNPHPDDRLTTEQLQDIAREYMEKMGYGKQPYIVFKHNDIAREHIHIVSLRVDSYGKKLPYKFEARRSKRITDELERKYGLIPSGNRRSRHETHAENVLKTADVKQGDVRRQIAAVVRAVLKRYAFRSLGEMNLLLARYHIVAEEVRKEYKGKRYDGLVYAITDDAGEKRMIPLHAGKIGRGTGYAAVVRHFEKSKALIKEKAPMLRNAIIEVMQSSPDKERFSEEMKKRGIDVHIRQNEQGRIYGITFISDEAGIAANGSRLGKGYSAHVFNDYFLGG”, the protein production result is reported as “not failed”.
